Results: the FLAb antibody collection (doi:10.7554/elife.23156)

B1: scFv; the commonest letter at each place (parent)
chain 1: EVKLDETGGGLVQPGRPMKLSCVASGFTFSDYWMNWVRQSPEKGLEWVAQIRNKPYNYETYYSDSVKGRFTISRDDSKSSVYLQMNNLRVEDMGIYYCTGSYYGMDYWGQGTSVTVS
chain 2: DVVMTQTPLSLPVSLGDQASISCRSSQSLVHSNGNTYLRWYLQKPGQSPKVLIYKVSNRFSGVPDRFSGSGSGTDFTLKISRVEAEDLGVYFCSQSTHVPWTFGGGTKLEIK

What was measured:
fluorescein = variants of: B1; assay: Kd (Tite-Seq); settings: with fluorescein; format: scFv 4-4-20, heavy + light
[1] = variants of: B1; assay: yeast surface expression (ratio to wild type); higher = more expressed; settings: format: scFv 4-4-20, heavy + light

## chain 1 G104D Y107F
fluorescein
  Kd: ≥ 10 µM
[1]
  yeast surface expression: 0.945

## chain 1 G104D Y107L
fluorescein
  Kd: ≥ 10 µM
[1]
  yeast surface expression: 1.18

## chain 1 G104E
fluorescein
  Kd: ≥ 10 µM
[1]
  yeast surface expression: 1.04

## chain 1 G104E D106A
fluorescein
  Kd: ≥ 10 µM
[1]
  yeast surface expression: 0.657

## chain 1 G104E G109C
fluorescein
  Kd: ≥ 10 µM
[1]
  yeast surface expression: 0.21

## chain 1 G104E G109Y
fluorescein
  Kd: ≥ 10 µM
[1]
  yeast surface expression: 0.384

## chain 1 G104E M105V
fluorescein
  Kd: ≥ 10 µM
[1]
  yeast surface expression: 0.886

## chain 1 G104E W108G
fluorescein
  Kd: ≥ 10 µM
[1]
  yeast surface expression: 0.296

## chain 1 G104E W108S
fluorescein
  Kd: ≥ 10 µM
[1]
  yeast surface expression: 0.331

## chain 1 G104E Y107A
fluorescein
  Kd: ≥ 10 µM
[1]
  yeast surface expression: 0.736

## chain 1 G104F
fluorescein
  Kd: ≥ 10 µM
[1]
  yeast surface expression: 0.597

## chain 1 G104F D106G
fluorescein
  Kd: ≥ 10 µM
[1]
  yeast surface expression: 0.169

## chain 1 G104F D106K
fluorescein
  Kd: ≥ 10 µM
[1]
  yeast surface expression: 0.201

## chain 1 G104F G109W
fluorescein
  Kd: ≥ 10 µM
[1]
  yeast surface expression: 0.0981

## chain 1 G104F W108F
fluorescein
  Kd: ≥ 10 µM
[1]
  yeast surface expression: 0.387

## chain 1 G104F W108I
fluorescein
  Kd: ≥ 10 µM
[1]
  yeast surface expression: 0.146

## chain 1 G104F W108R
fluorescein
  Kd: 0.02 µM
[1]
  yeast surface expression: 0.146

## chain 1 G104F W108T
fluorescein
  Kd: ≥ 10 µM
[1]
  yeast surface expression: 0.194

## chain 1 G104F Y107Q
fluorescein
  Kd: ≥ 10 µM
[1]
  yeast surface expression: 0.401

## chain 1 G104H
fluorescein
  Kd: ≥ 10 µM
[1]
  yeast surface expression: 0.716

## chain 1 G104H D106H
fluorescein
  Kd: ≥ 10 µM
[1]
  yeast surface expression: 0.586

## chain 1 G104H G109H
fluorescein
  Kd: ≥ 10 µM
[1]
  yeast surface expression: 0.765

## chain 1 G104H W108R
fluorescein
  Kd: ≥ 10 µM
[1]
  yeast surface expression: 0.272

## chain 1 G104H Y107M
fluorescein
  Kd: ≥ 10 µM
[1]
  yeast surface expression: 0.478

## chain 1 G104H Y107R
fluorescein
  Kd: ≥ 10 µM
[1]
  yeast surface expression: 0.518

## chain 1 G104I
fluorescein
  Kd: ≥ 10 µM
[1]
  yeast surface expression: 0.325

## chain 1 G104I D106N G109F
fluorescein
  Kd: 0.345 µM
[1]
  yeast surface expression: 0.094

## chain 1 G104I G109K
fluorescein
  Kd: ≥ 10 µM
[1]
  yeast surface expression: 0.246

## chain 1 G104I M105S
fluorescein
  Kd: ≥ 10 µM
[1]
  yeast surface expression: 0.592

## chain 1 G104I W108D
fluorescein
  Kd: ≥ 10 µM
[1]
  yeast surface expression: 0.236

## chain 1 G104I W108H
fluorescein
  Kd: ≥ 10 µM
[1]
  yeast surface expression: 0.102

## chain 1 G104I Y107D
fluorescein
  Kd: ≥ 10 µM
[1]
  yeast surface expression: 0.2

## chain 1 G104I Y107N
fluorescein
  Kd: ≥ 10 µM
[1]
  yeast surface expression: 0.247

## chain 1 G104K
fluorescein
  Kd: ≥ 10 µM
[1]
  yeast surface expression: 0.557

## chain 1 G104K D106H
fluorescein
  Kd: ≥ 10 µM
[1]
  yeast surface expression: 0.594

## chain 1 G104K G109C
fluorescein
  Kd: ≥ 10 µM
[1]
  yeast surface expression: 0.195

## chain 1 G104K G109F
fluorescein
  Kd: ≥ 10 µM
[1]
  yeast surface expression: 0.282

## chain 1 G104K W108Q
fluorescein
  Kd: ≥ 10 µM
[1]
  yeast surface expression: 0.294

## chain 1 G104K Y107N
fluorescein
  Kd: ≥ 10 µM
[1]
  yeast surface expression: 0.424

## chain 1 G104K Y107P G109N
fluorescein
  Kd: ≥ 10 µM
[1]
  yeast surface expression: 0.307

## chain 1 G104L
fluorescein
  Kd: ≥ 10 µM
[1]
  yeast surface expression: 0.556

## chain 1 G104L D106G
fluorescein
  Kd: ≥ 10 µM
[1]
  yeast surface expression: 0.169

## chain 1 G104L G109K
fluorescein
  Kd: ≥ 10 µM
[1]
  yeast surface expression: 0.179

## chain 1 G104L M105G Y107F
fluorescein
  Kd: ≥ 10 µM
[1]
  yeast surface expression: 0.414

## chain 1 G104L M105L
fluorescein
  Kd: ≥ 10 µM
[1]
  yeast surface expression: 0.303

## chain 1 G104L W108C
fluorescein
  Kd: ≥ 10 µM
[1]
  yeast surface expression: 0.296

## chain 1 G104L W108G
fluorescein
  Kd: ≥ 10 µM
[1]
  yeast surface expression: 0.178

## chain 1 G104L W108R
fluorescein
  Kd: ≥ 10 µM
[1]
  yeast surface expression: 0.278

## chain 1 G104L Y107C
fluorescein
  Kd: ≥ 10 µM
[1]
  yeast surface expression: 0.133

## chain 1 G104L Y107E
fluorescein
  Kd: ≥ 10 µM
[1]
  yeast surface expression: 0.499

## chain 1 G104M
fluorescein
  Kd: ≥ 10 µM
[1]
  yeast surface expression: 0.571

## chain 1 G104M G109L
fluorescein
  Kd: ≥ 10 µM
[1]
  yeast surface expression: 0.0989

## chain 1 G104M M105R
fluorescein
  Kd: ≥ 10 µM
[1]
  yeast surface expression: 0.619

## chain 1 G104M W108V G109T
fluorescein
  Kd: ≥ 10 µM
[1]
  yeast surface expression: 0.212

## chain 1 G104M Y107H
fluorescein
  Kd: ≥ 10 µM
[1]
  yeast surface expression: 0.555

## chain 1 G104N
fluorescein
  Kd: ≥ 10 µM
[1]
  yeast surface expression: 1.1

## chain 1 G104N D106W
fluorescein
  Kd: ≥ 10 µM
[1]
  yeast surface expression: 0.316

## chain 1 G104N G109Y
fluorescein
  Kd: ≥ 10 µM
[1]
  yeast surface expression: 0.305

## chain 1 G104N W108M G109E
fluorescein
  Kd: ≥ 10 µM
[1]
  yeast surface expression: 0.217

## chain 1 G104N Y107A
fluorescein
  Kd: ≥ 10 µM
[1]
  yeast surface expression: 0.74

## chain 1 G104N Y107K
fluorescein
  Kd: ≥ 10 µM
[1]
  yeast surface expression: 0.64

## chain 1 G104P
fluorescein
  Kd: ≥ 10 µM
[1]
  yeast surface expression: 0.859

## chain 1 G104P Y107M G109M
fluorescein
  Kd: ≥ 10 µM
[1]
  yeast surface expression: 0.257

## chain 1 G104Q
fluorescein
  Kd: ≥ 10 µM
[1]
  yeast surface expression: 0.824

## chain 1 G104Q D106K
fluorescein
  Kd: ≥ 10 µM
[1]
  yeast surface expression: 0.274

## chain 1 G104Q G109M
fluorescein
  Kd: ≥ 10 µM
[1]
  yeast surface expression: 0.0981

## chain 1 G104Q G109Q
fluorescein
  Kd: ≥ 10 µM
[1]
  yeast surface expression: 0.248

## chain 1 G104Q G109T
fluorescein
  Kd: ≥ 10 µM
[1]
  yeast surface expression: 0.272

## chain 1 G104Q M105C
fluorescein
  Kd: ≥ 10 µM
[1]
  yeast surface expression: 0.62

## chain 1 G104Q Y107G W108I
fluorescein
  Kd: ≥ 10 µM
[1]
  yeast surface expression: 0.271

## chain 1 G104Q Y107V
fluorescein
  Kd: ≥ 10 µM
[1]
  yeast surface expression: 0.941

## chain 1 G104R
fluorescein
  Kd: ≥ 10 µM
[1]
  yeast surface expression: 0.626

## chain 1 G104R D106M
fluorescein
  Kd: ≥ 10 µM
[1]
  yeast surface expression: 0.275

## chain 1 G104R D106P Y107A
fluorescein
  Kd: ≥ 10 µM
[1]
  yeast surface expression: 0.359

## chain 1 G104R G109C
fluorescein
  Kd: ≥ 10 µM
[1]
  yeast surface expression: 0.5

## chain 1 G104R M105C
fluorescein
  Kd: ≥ 10 µM
[1]
  yeast surface expression: 0.315

## chain 1 G104R M105R
fluorescein
  Kd: ≥ 10 µM
[1]
  yeast surface expression: 0.672

## chain 1 G104R Y107R
fluorescein
  Kd: ≥ 10 µM
[1]
  yeast surface expression: 0.263

## chain 1 G104R Y107W
fluorescein
  Kd: ≥ 10 µM
[1]
  yeast surface expression: 0.257

## chain 1 G104S
fluorescein
  Kd: ≥ 10 µM
[1]
  yeast surface expression: 0.799

## chain 1 G104S W108E
fluorescein
  Kd: ≥ 10 µM
[1]
  yeast surface expression: 0.198

## chain 1 G104S W108R
fluorescein
  Kd: ≥ 10 µM
[1]
  yeast surface expression: 0.26

## chain 1 G104S W108S
fluorescein
  Kd: ≥ 10 µM
[1]
  yeast surface expression: 0.304

## chain 1 G104S Y107G
fluorescein
  Kd: ≥ 10 µM
[1]
  yeast surface expression: 0.303

## chain 1 G104S Y107K
fluorescein
  Kd: ≥ 10 µM
[1]
  yeast surface expression: 0.796

## chain 1 G104S Y107S
fluorescein
  Kd: ≥ 10 µM
[1]
  yeast surface expression: 0.437

## chain 1 G104S Y107T
fluorescein
  Kd: ≥ 10 µM
[1]
  yeast surface expression: 0.831

## chain 1 G104T
fluorescein
  Kd: ≥ 10 µM
[1]
  yeast surface expression: 0.599

## chain 1 G104T D106C Y107Q
fluorescein
  Kd: ≥ 10 µM
[1]
  yeast surface expression: 0.31

## chain 1 G104T D106T Y107L
fluorescein
  Kd: ≥ 10 µM
[1]
  yeast surface expression: 0.547

## chain 1 G104T D106Y
fluorescein
  Kd: ≥ 10 µM
[1]
  yeast surface expression: 0.331

## chain 1 G104T G109D
fluorescein
  Kd: ≥ 10 µM
[1]
  yeast surface expression: 0.235

## chain 1 G104T G109L
fluorescein
  Kd: ≥ 10 µM
[1]
  yeast surface expression: 0.241

## chain 1 G104T W108A
fluorescein
  Kd: ≥ 10 µM
[1]
  yeast surface expression: 0.326

## chain 1 G104T W108F
fluorescein
  Kd: ≥ 10 µM
[1]
  yeast surface expression: 0.329

## chain 1 G104T Y107I W108Y
fluorescein
  Kd: ≥ 10 µM
[1]
  yeast surface expression: 0.224

## chain 1 G104T Y107P
fluorescein
  Kd: ≥ 10 µM
[1]
  yeast surface expression: 0.313

## chain 1 G104V
fluorescein
  Kd: ≥ 10 µM
[1]
  yeast surface expression: 0.536

## chain 1 G104V D106P
fluorescein
  Kd: ≥ 10 µM
[1]
  yeast surface expression: 0.232

## chain 1 G104V G109W
fluorescein
  Kd: ≥ 10 µM
[1]
  yeast surface expression: 1.57

## chain 1 G104V M105E
fluorescein
  Kd: ≥ 10 µM
[1]
  yeast surface expression: 0.637

## chain 1 G104V M105R G109W
fluorescein
  Kd: ≥ 10 µM
[1]
  yeast surface expression: 0.425

## chain 1 G104V W108A
fluorescein
  Kd: ≥ 10 µM
[1]
  yeast surface expression: 0.141

## chain 1 G104V Y107I
fluorescein
  Kd: ≥ 10 µM
[1]
  yeast surface expression: 0.443

## chain 1 G104V Y107K
fluorescein
  Kd: ≥ 10 µM
[1]
  yeast surface expression: 0.324

## chain 1 G104W
fluorescein
  Kd: ≥ 10 µM
[1]
  yeast surface expression: 0.587

## chain 1 G104W G109E
fluorescein
  Kd: ≥ 10 µM
[1]
  yeast surface expression: 0.167

## chain 1 G104W G109R
fluorescein
  Kd: ≥ 10 µM
[1]
  yeast surface expression: 0.171

## chain 1 G104W M105R
fluorescein
  Kd: ≥ 10 µM
[1]
  yeast surface expression: 0.484

## chain 1 G104Y
fluorescein
  Kd: ≥ 10 µM
[1]
  yeast surface expression: 0.464

## chain 1 G104Y G109R
fluorescein
  Kd: 0.021 µM
[1]
  yeast surface expression: 1.08

## chain 1 G104Y G109T
fluorescein
  Kd: ≥ 10 µM
[1]
  yeast surface expression: 0.0981

## chain 1 G104Y M105L
fluorescein
  Kd: ≥ 10 µM
[1]
  yeast surface expression: 0.44

## chain 1 G104Y M105N
fluorescein
  Kd: ≥ 10 µM
[1]
  yeast surface expression: 1.13

## chain 1 G104Y W108L
fluorescein
  Kd: ≥ 10 µM
[1]
  yeast surface expression: 0.212

## chain 1 G104Y Y107H
fluorescein
  Kd: ≥ 10 µM
[1]
  yeast surface expression: 0.59
